Consider 29 sequences from the supplement of paper PMC10567573.

± gives the standard deviation.

The data set can be described thus: protein stability index of a GFP-peptide fusion (GPS, HEK-293T) (PSI 1-6); higher = more stable.
[1] abbreviates: treatment: DMSO, c terminus: a fixed tail appended.
Setting [2] is: treatment: MLN4924 1 uM, 8 h, c terminus: a fixed tail appended.
Where [3] appears, read: treatment: DMSO, c terminus: native.
Where [4] appears, read: treatment: MLN4924 1 uM, 8 h, c terminus: native.
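Also: 24-mer peptide tiles fused after GFP, lentivirally expressed, FACS-sorted into six equal bins by GFP/DsRed ratio, decoded by Illumina sequencing, PSI is the read-weighted mean bin number.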

LTYENVERWLKELRDHADSNIVIM [RAB11A]: the protein stability index is, setting by setting: under setting [1], 2.21 ± 0.34; under setting [2], 2.75 ± 0.3.

Consider PRGRRISVICRSLPEGMGPGESGQ [ALKBH7], for which the protein stability index worked out at 3.69 ± 0.11 under setting [1] and 3.95 ± 0.37 under setting [2].

Turning to YYEMGIHCWDVAGAGIIVTEAGGV [IMPA1], the protein stability index runs as follows: under setting [1], 2.21 ± 0.34; under setting [2], 2.03 ± 0.37.

As to ISSIKEKYPSHSFIGEESVAAGEK [IMPA1], the protein stability index turned out to be 4.8 ± 0.13 under setting [1] and 4.81 ± 0.23 under setting [2].

DRDPNSLLISCAVSYRGAWWYRNC [TNXB] displayed a protein stability index under setting [1] of 2.83 ± 0.24 and a protein stability index under setting [2] of 2.77 ± 0.98.

For the sequence AKGIPQRAPPKRKRKRVKQRINTY [PCMTD1], the protein stability index is 4.41 ± 0.14 under setting [1] and 4.58 ± 0.16 under setting [2].

VELPMNSSNGNDNGNGKNGGLEHV [BNIP3L]: the protein stability index runs as follows: under setting [1], 5.25 ± 0.17; under setting [2], 5.23 ± 0.22.

For TMSIPVAMETDGPLFEDVQMLRKT [PPP2R5C], the protein stability index by setting is: under setting [1], 4.22 ± 0.12; under setting [2], 4.3 ± 0.1.

Consider EFEAVVRQAELAIERCIFPERIYQ [PI4K2A], for which the protein stability index by setting is: under setting [1], 2.43 ± 0.37; under setting [2], 2.33 ± 0.41.

For RSGGPPPKKSAPSAVARSNSWMGS [RBMY1A1], the protein stability index was found to be 3.7 ± 0.27 under setting [1] and 3.64 ± 0.22 under setting [2].

The sequence APPRRLRSRKVSCPLTRSNGDLSR [FCHO1] had a protein stability index under setting [1] of 4.16 ± 0.17 and a protein stability index under setting [2] of 4.34 ± 0.062.

DLPSSLLLPEDMALRNLPPLRAAH [SMG5]: the protein stability index runs as follows: under setting [1], 3.56 ± 0.29; under setting [2], 3.44 ± 0.16.

Consider RGKRGYSRGLHAWEISWPLEQRGT [SPSB2], for which the protein stability index is, setting by setting: under setting [1], 2.88 ± 0.087; under setting [2], 3.03 ± 0.41.

Sequence SLSAALLTAALLTFDTGCLTLSQY [POMT2] yielded a protein stability index under setting [1] of 3.29 ± 0.32 and a protein stability index under setting [2] of 3.11 ± 0.43.

As to EEDGGADEHEHPLTSELDPEKEQE [MIA2], the protein stability index runs as follows: under setting [1], 5.4 ± 0.57; under setting [2], 5.5 ± 0.37.

Consider KGAPASWWNHMHFQHHAKPNCFRK [FADS1], for which the protein stability index by setting is: under setting [1], 2.87 ± 0.18; under setting [2], 3.01 ± 0.43.

As for MRLSKTLVDMDMADYSAALDPAYT [HNF4A], the protein stability index by setting is: under setting [1], 2.86 ± 0.28; under setting [2], 3.08 ± 0.25.

Consider FTGKAEMGGPFSYVYFFCTVPEIL [TMEM106C], for which the protein stability index reads like this: under setting [1], 2.72 ± 0.59; under setting [2], 2.16 ± 0.87.

TLKFYCLPDNYEIIDSSLEDITYV [USP39]: the protein stability index under setting [1] was determined as 2.18 ± 0.047 and the protein stability index under setting [2] was 2.29 ± 0.19.

On to ELRNMCDEHIASEEPAEKEDLLQQ [CLCN6], for which the protein stability index under setting [1] was determined as 5.38 ± 0.18 and the protein stability index under setting [2] stood at 5.45 ± 0.12.

Turning to SWNNNDRSLNVFVKEDDKLIFHRH [SPSB1], the protein stability index under setting [1] is 3.17 ± 0.13 and the protein stability index under setting [2] is 3.29 ± 0.21.

Consider PQPHRNRAGLDLPTIDTGYDSQPQ [TRAF3IP2], for which the protein stability index runs as follows: under setting [1], 4.58 ± 0.2; under setting [2], 4.76 ± 0.19.

Consider LKKEPGHPWKWSNGKEFNNWFNVT [CD69], for which the protein stability index runs as follows: under setting [1], 2.14 ± 0.13; under setting [2], 2.23 ± 0.25.

With GQRQPPPSEPTQGPEIVPRGAGP [DNAJC4], the protein stability index by setting is: under setting [3], 5.28 ± 0.51; under setting [4], 5.49 ± 0.2.

As to MLSIFYFAIPVGSGLGYIAGSKVK [SPNS1], the protein stability index runs as follows: under setting [1], 2.83 ± 0.34; under setting [2], 3.05 ± 0.4.

With MGGAVSAGEDNDDLIDNLKEAQYI [PCMTD1], the protein stability index was determined as 4.82 ± 0.086 under setting [1] and 4.64 ± 0.17 under setting [2].

CSYVVTRTISCHVQNGTYLQRVLQ [EMID1]: the protein stability index was 2.44 ± 0.53 under setting [1] and 2.6 ± 0.36 under setting [2].

Take ELDYLMDVLVGTQALERPPGPGR [SERTAD1]: the protein stability index is, setting by setting: under setting [3], 2.23 ± 0.26; under setting [4], 2.67 ± 0.58.

In the case of KCKPSLPAEAEGAAQELENQMKER [TMEM120A], the protein stability index is, setting by setting: under setting [1], 5.42 ± 0.19; under setting [2], 5.49 ± 0.2.
